Consider 16 sequences from a protein production outcome set (Wang et al. 2014).

This series is described as follows: label from the status in PepcDB records.

As to “MREALRSLLVALQFLTRLPVRLSAMPTPEQFGRAVLCYPLVGVLIGVVLYAAARSLDGTPPLLQAALLLSLWVALSGALHLDGLADMADAWVGGLGDRERTLAIMKDPRSGPVAVVVLVLVLLLKFSALAALLGQGEAGLLPLAPWLARSSLPLLFLTTPYARPGGLGQAIAEHLPARSLPWVLGVSFGLALAFGLAGLLALLVTLMLFAWLRSRFLARLGGTTGDTAGALVELTECAVLVALAL”, the protein production entry is reported as “failed”.

With “MREDNPNWFLRWEEELPSPEELIPISQTLITPHLALAFQIGSPNHHLGSKRTTAIYHQKLQSSTTPTTPTPTPPPMMMNSDFGGGDSTDLGSGSIGGEPARTLKRPRLVWTPQLHKRFVDAVGHLGIKNAVPKTIMQLMSVEGLTRENVASHLQKYRLYLRRMQGGNGNGITGGHVIVSDSATDRLFASSPVPAHFLSPDYLMPPLEHSYMGKHVITQQNQVVRNLRYEDSEYGHGSMKMLKLFPAGN”, the protein production entry is on record as “not failed”.

As for “MREETKCALIIDESLPLGLIANTAAILGAALGKNKPDLIGETVTDGSGIDHLGIVKIPIPILKGNAELLHQLSQKLLTDEFNDILTVDFTDVAQSIHTYEAYIEAFQSTAASDYRYFGIGICGDKKKVARLTGSLGLLRLEHHHHHH”, the protein production entry is “not failed”.

In the case of “MREHHHNLRHYTLYAATIITITTLVRFWFVASGQLDLVQDEAQYWDWTRRLQLSYYSKGPLIAWLIGMWTGVFGDTELGVRFGALAGSALAQVMLFLGVGRLFGRPRLALLTLGVANTTPLFMVAGVLMTTDGPLLLCWLGALLCIHAATRTPRATAPYLLLAMCMAVGVLAKYMMLAVAAIACLHMWLLHRQRLLPQGVALRVVCACLAGAACGMLPILLWNAQNDWVGFKHVGTLAGVTGKASKAFLRLDRLPEHLGAQLGVATPWWLLLMLGMAWRSLRIAWTGVVPPGEPAEAAGREEAVRQSSLLFCAFMPLWGVITLWSLHTRIYPNWPAMSYVGGIILAAAGVERLLDGLGAPRWRRLVPLWFTLGACLFAAAHFQNTLPLPASLNPAARLKGWEDLGRELDRVRHGLPHPDRVFFFSDAYDITAELAFYVPGKPFTFCADFGRRMSQYDLWPSPADKVGWDAVFVRRDGTSVPRELLEMFDSAELYRYQSTHHGAPGRVFTVIVLRGFNGEWPRRSFRSF”, the protein production entry is given as “failed”.

Take “MRETGSRPSRSGERRLSWLWLAMAASLVFAVFAVRPPSRIDNVLYDVLTRANAHPADDSILIVDIDDRSLARMGAWPWGRDTHARMVDQLTQAGAKTIVYDVLFSQPSRDPAQDRALGEAIARSGRVYLPEFLIDGGEQAPPRVVGSISEIARGAAGVGLAHVRFDDDGVVRRMAPFEANGPSLKPDLMTVVHRATRPPGSPDVTRGNEQTLLISFAGPPSIYRHASFASVLDGEVPRELIAGRTVFVGLTAPGLGPAFPTPVTPDAASMTGVQLQASVLDALRSGRMITPAGPWSRVGFSLTLLWLLMIGFMALPPRANLLLTIGLCLVGLAYSAALFWLGHIWLSPITTVIGLQLVALIWGWGRLGQVNDLIGRELARVRAVVRGRGAKPAAFSGDVVTRQASSLGDAITRMDDLRRFSADALFSLPDATLVANEQGRVIAANAAAQALFKPHQATLNGASLADLINLLDPLGRRFELDWPQATDRHDPIDLHLPDGRAFQLQTVLRRDEHGGPAGWIVRLADISILTAAMRQREQALQLLTHDMRSPQTSILALLATTPDLPKETADRIAAYARRTLALADGFVQLARAEVTPVSLEPLDLADVAVEAIDEVWPQSLQRKIRIEQVGGEAPLMVLGDRSVLARTFVNLLGNALKYSPSGSTITVNLAEQPSPSGPVACIAIADQGPGFSREEAATAFRPFQRFERPGHELASNGVGLGLAFVQAAVARHGGEVSCRSEPGVGAEFTVRLPRHGVVQGG”: the protein production result was “failed”.

With “MRETIREIQKVAYWLAIKGLSEANAGNISVRLDERPEGYEVKSVNEYGFDYDGPEMYLLITATGSRMREVYEDDSKICLLHVLPGKHYEILHGNGKPTSEFPTHLMIHAKFKEMNPEKKAIVHTHPLNLLTLMNLEEFQELLPKMMKIHPEVLIFFPQGISVVEFEKPGSVELGLKTVEKSEGKDAVLWDKHGVVAFGKDVAEAYDRVEILEKAAEILLRVLSLGRNPTGVPEGWL”, the protein production entry is listed as “not failed”.

Regarding “MRETSNPVFRSLPKQRGGYAQFGTGTAQQGFPADPYLAPYREAKATRPLTIDDVVTKTGLTLAMLAGTAVVSYFLVASNVALAMPLTLVGALGGLALVLVATFGRKQDNPAIVLSYAALEGLFLGAISFVLANFTVASANAGVLIGEAILGTMGVFFGMLVVYKTGAIRVTPKFTRMVVAALFGVLVLMLGNLVLAMFNVGGGEGLGLRSPGPLGIIFSLVCIGIAAFSFLIDFDAADQMIRAGAPEKAAWGVALGLTVTLVWLYIEILRLLSYLQNE”, the protein production entry is listed as “failed”.

As for “MRFLFLLFIVFPAIEIGIFLFLGNLIGILPTVLFMILTGIIGAAAAKKQGTEVYYKVQRDLQYGKMPGEAIADGLCIFIGGLLLMLPGFLSDLAGACLLIPFTRGWCKPILFKWLRGMSKNKRIIIK”, the protein production result is “failed”.

Regarding “MRFMFLHPRLSLEGDPLGLMQLSASLKQRGHIVGLTLLTEDYIEAIRSFQPDMLGVSLMSSDAVMMHQVLNKVRMVFPDLFIIVGGPHPTFDPSCLMVLPVNAICVGEGDEALVEALEQYGREGHVEGIRNVGTVTTPVTLRPLVSDLDDLPFIDRDIVYAKNHIVRDFPLKTFAASRGCHFKCTYCFNHAYNAMYAGLGHVVRRRSVDHLIAEMRDVIARYPTSYIKISDDSFTYRVDSWLEEFAEKYPRLIGLPFYCLLRADVVTRDMVRLLREAGCRSVCMSIEAGAETVRRDVLNRRVSNEKIIESFDLFNEAGIAIYTNSMLAMPRATLADDIATLDLNIRCRPTLGHFTIMAPFPGTRIHDMCEKDGILPERCGGDGDIPTSTGELSKLTTYTDEEKNIQKNIVLLGPLVIRFPVLRGVFLRCLAKLPSNNILFKCIYTVTKNLLFKRIVPVRMSPLLMLRIAIAQVKAARTQVG”, the protein production entry was “failed”.

Consider “MRFNYPPDGVSQLIASRWKIGVALALAVLLFFAFLVLLPLADGIVLGIVFAYIARPIQVKFGKYRKIGALIASLFIFIPIVFIVGAGVVEILNQISWIFENQTSVMSGILDFIHGLEIPSTYVERINNAIWNLFTSLLPAVGSVGLISYAQSIGLFVINFIVSIFFCYFLLADGDRLYCAFIGMIPSDYQNIVNRYASHLDLILKGVFIGNAYSALIVSVTSVFVFRAFGFSHVLALATLVFIASVIPLFAGYMVLVPMALFRYFEQGFQSAALFFVVSSLVIYGPPELILRPFLTSLKSKIHPMLLMLAFLGGAFVGGIAGFFAAPILLGALVAAYRVYQEQIHPELVAQADVYLKDPAKACRTDEKNSFQ”, for which the protein production entry is “failed”.

In the case of “MRFPELEELKNRRTLKWTRFPEDVLPLWVAESDFGTCPQLKEAMADAVEREVFGYPPDATGLNDALTGFYERRYGFGPNPESVFAIPDVVRGLKLAIEHFTKPGSAIIVPLPAYPPFIELPKVTGRQAIYIDAHEYDLKEIEKAFADGAGSLLFCNPHNPLGTVFSEEYIRELTDIAAKYDARIIVDEIHAPLVYEGTHVVAAGVSENAANTCITITATSKAWNTAGLKCAQIFFSNEADVKAWKNLSDITRDGVSILGLIAAETVYNEGEEFLDESIQILKDNRDFAAAELEKLGVKVYAPDSTYLMWLDFAGTKIEEAPSKILREEGKVMLNDGAAFGGFTTCARLNFACSRETLEEGLRRIASVL”, the protein production entry is recorded as “failed”.

As to “MRFPSLLALGLTLPLGAFAAGGDSTGGSTWTNPPKETQTTKECKGVKVWDDKKKRCVAPKNSGLDADTLYDAVRELAYAGRPADAQGVLAAMPDQSDDRVLTYWGFTHRKLGDLDRAAFYYQAAIAANPDNILARSYMGQGFVEAGKTDLAIAQWREITARGGEGSWAEVSLREAIRSGLTYSY”, the protein production entry is recorded as “failed”.

Turning to “MRFSLFVHMERVSDQQTQKQLYDEMIELCQIADRGGMHAIWTGEHHAMNFTIAPNPFLNIADLANKTKHVRLGTGTVVAPFWHPIKLAGEAAMTDIISNGRLDIGIARGAYSFEYERMVPGMDAWSAGQRLREMIPAIKNLWKGDYEHNGEFWQFPKTTSAPQPLQQPNPPIWVAARDPNSHEFAVQNGCNVQVTPLHLGDEEVEKLMGHFNSACEKFQDIERPEIMLLRHTYVADSEEDAQVAANEMNVFYNYFGAWFKNEREINQGLIAPLSDEEIAAHPFYTPEAMRKNNVIGQAQEVIDRLKAYEAMGYDEYSFWIDTGMSFERKKASLERMINEVMPAFSESKVDRRHATISAVY”, the protein production result is recorded as “failed”.

Regarding “MRFVNPIPFVRDINRSKSFYRDRLGLKILEDFGSFVLFETGFAIHEGRSLEETIWRTSSDAQEAYGRRNMLLYFEHADVDAAFQDIAPHVELIHPLERQAWGQRVFRFYDPDGHAIEVGESLSQSGE”, the protein production entry is given as “not failed”.

As for “MRGARKSMGRVSYLRLPHLSGDQLCFVAEDDLWLASLDGPGRAWRLTVDRTKAGPPRFSPDGRHIAYTSWRTLVPEVHLVPVDGGPGRQLTHWGGLDTRVCGWSPPDPDGTTAVLAVASHGEPFSHLTWAYKVTPDGDPGRKLPWGPVTDIQAADLDGERRTLLLTGTPPHEPAAWKRYRGGATGRLWLHGERLLPDLGGHLSAPMFVGGRIAFLSDHEGVGNLYSCAQDGTGLRRHTDHDAFYARNAASDGTRVVYQCAGDLWIVDDLAPGSAPRRLDVRLSGPRAGRRTHQVPAAQHVGGISVDETGRASAVVVRGSLYWLTHRDGPARTIADTPGVRVRLPEMLGESGRIAYVTDAEGEDAVEISYLPRATGGRAARRLASGRLGRVLELVSDPAGDRLAVASHDGRLLILDVAEPDTEVTLALEAVDAGYPPDAGDEDAAGTAARADSAPDAPAEDTDARDIAAGTGTGDIADADAAAGGTVTPGSPGTPATAGGQVTELIRSVNGPVRDLAFSPDGTWLTWSHPGIGRTLRQIKMARIDGPEGTLVVDVTNGRFEDENPVFTRDGRYLAFLSWRGFDPVYDVHTGDLSFPLGCRPYLVPLSSATPSPFALNPEGRPAAGGLDPLEDEPGEGGAVMVEVEGLESRVTPFPVTASKYSALEPVAGGGLVWLRWPISGALGETFANPADPSERPTLEHFNLAKAKKSELVDHLDWFRVSGDGSRLVVLDEGELRAVPASEVGDGDSTTWIDLRRILHEVDPAAEWRQAYDEAGRLIRAYFWDPGMCGIDWDAVLDQYRPLLERVASPDEFADLLREVLGELGTSHAYVVAARRNEGPAHYQRWQGLLGANLACRDGRWLVRRILPGDSSDSKARSPLAGTGIRDGAVLTHVDGRPVDPVLGPSPLLAGAGGTTVELTFAPAEGCQGPSRRVAVVPLVDERPLRYQDWVAKRREVVRELSGGRCGYLHIPDMGGSGWAQFNRDLRMEVSRPALIVDVRGNAGGHISELVIEKLTRTILGWDLTRDAQPVSYTSNAPRGPVVAVADEATSSDGDMITAAFKLLRLGPVVGQRTWGGVVGMTGRHRLGDGSVITVPMNAAWFDAYGWSVENYGVAPDVEALRTPLDWAEGRYPVLDEAVRLALELLETNPPATPPGYEAVPDRSRPPLPPRE”, the protein production entry is reported as “failed”.

Consider “MRGKILIFLHAHLPYVHHPEYDHFLEERWLFEAITETYIPLLMMFDEIEDFRLTMSITPPLMEMLSSRDLQEKYERHMEKLIELANKEVERTKKEHPLKHKMAKFYREHFEKILNVFRSYDGNILEGFKKYQETGKLEIVTCNATHAFLPLYQMYPEVVNAQITVGVKNYAKHMTLHPRGIWLAECGYYQGLDLYLAQNNVEYFFVDSHAFWFADEQPRYGVYRPIMTPSGVFAFARDPESSEQVWSAAVGYPGDPRYREFYRDIGFDREMEYIKDYIDPSGVRINTGIKYHRITSKSLDASQKEYYDIDLAMEAVEEHARDFLHKKESQARRLMDIMGVEPVIVAPFDAELFGHWWFEGVFFLKRFFELVNESKDLKLVTASEVIDTLEEVQIATPADSSWGAGGYYETWLNGTNDWIYRHLHEMIERMIDLSKKYYNSSDPLVERVLNQMLRELFLAQSSDWAFIMTTRTSVQYAENRTKLHIKRFLNLYDQLVSGRIDEEMLRYYEWTDAIFPEINFRVMARDVI”, for which the protein production entry is “not failed”.
